The supplement of paper PMC10567573

B1: ZNF649 (parent)
chain: YQAGKPDALTKLEQGEPLWTLEDE
B2: KIAA0774 (parent)
chain: FEDEVKRLGWQQQAELQELEERLQ

Variants of: B1
Experiment: protein stability index of a GFP-peptide fusion (GPS, HEK-293T) (PSI 1-6); higher = more stable
Conditions: c terminus: a fixed tail appended
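Note: lentivirally expressed fusions sorted by FACS into six bins by GFP to DsRed ratio, PSI derived from sequencing read proportions per bin multiplied by bin number.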

Compared with YQAGKPDALTKLEQGEPLWDLEDE [T20D], YQAGKPDALTKLEQGEPLWELEDE [T20E] is higher in protein stability index: 5.06 for the first, 5.14 for the second.

Compared with YQAGKPDALTKLEQGEPLWFLEDE [T20F], YQAGKPDALTKLEQGEPLWGLEDE [T20G] is higher in protein stability index: 4.22 for the first, 4.24 for the second.

Going from YQAGKPDALTKLEQGEPLWHLEDE [T20H] to YQAGKPDALTKLEQGEPLWILEDE [T20I], the protein stability index falls from 4.57 to 3.96.

Compared with YQAGKPDALTKLEQGEPLWKLEDE [T20K], YQAGKPDALTKLEQGEPLWLLEDE [T20L] is lower in protein stability index: 4.13 for the first, 3.15 for the second.

First: YQAGKPDALTKLEQGEPLWMLEDE [T20M]
Second: YQAGKPDALTKLEQGEPLWNLEDE [T20N]
The protein stability index of the first is higher: 5.05 for the first, 4.42 for the second.

First: YQAGKPDALTKLEQGEPLWPLEDE [T20P]
Second: YQAGKPDALTKLEQGEPLWQLEDE [T20Q]
The protein stability index of the first is lower: 4.58 for the first, 4.82 for the second.

Going from YQAGKPDALTKLEQGEPLWRLEDE [T20R] to YQAGKPDALTKLEQGEPLWSLEDE [T20S], the protein stability index falls from 4.34 to 3.73.

First: YQAGKPDALTKLEQGEPLWVLEDE [T20V]
Second: YQAGKPDALTKLEQGEPLWWLEDE [T20W]
The protein stability index of the first is higher: 4.41 for the first, 2.67 for the second.

Going from YQAGKPDALTKLEQGEPLWYLEDE [T20Y] to YQAGKPDALTKLEQGEPLWTAEDE [L21A], the protein stability index falls from 4.7 to 4.47.

First: YQAGKPDALTKLEQGEPLWTCEDE [L21C]
Second: YQAGKPDALTKLEQGEPLWTDEDE [L21D]
The protein stability index of the first is lower: 2.78 for the first, 4.89 for the second.

Compared with YQAGKPDALTKLEQGEPLWTEEDE [L21E], YQAGKPDALTKLEQGEPLWTFEDE [L21F] is lower in protein stability index: 5.3 for the first, 4.42 for the second.

Going from YQAGKPDALTKLEQGEPLWTGEDE [L21G] to YQAGKPDALTKLEQGEPLWTHEDE [L21H], the protein stability index rises from 4.4 to 5.03.

Compared with YQAGKPDALTKLEQGEPLWTIEDE [L21I], YQAGKPDALTKLEQGEPLWTKEDE [L21K] is higher in protein stability index: 4.06 for the first, 4.79 for the second.

First: YQAGKPDALTKLEQGEPLWTMEDE [L21M]
Second: YQAGKPDALTKLEQGEPLWTNEDE [L21N]
The protein stability index of the first is lower: 3.88 for the first, 4.39 for the second.

Compared with YQAGKPDALTKLEQGEPLWTQEDE [L21Q], YQAGKPDALTKLEQGEPLWTREDE [L21R] is higher in protein stability index: 4.23 for the first, 4.55 for the second.

Going from YQAGKPDALTKLEQGEPLWTSEDE [L21S] to YQAGKPDALTKLEQGEPLWTTEDE [L21T], the protein stability index falls from 4.52 to 4.37.

Compared with YQAGKPDALTKLEQGEPLWTVEDE [L21V], YQAGKPDALTKLEQGEPLWTWEDE [L21W] is higher in protein stability index: 2.31 for the first, 3.52 for the second.

Compared with YQAGKPDALTKLEQGEPLWTYEDE [L21Y], YQAGKPDALTKLEQGEPLWTLADE [E22A] is lower in protein stability index: 4.95 for the first, 4.8 for the second.

Going from YQAGKPDALTKLEQGEPLWTLCDE [E22C] to YQAGKPDALTKLEQGEPLWTLDDE [E22D], the protein stability index rises from 3.45 to 4.6.

First: YQAGKPDALTKLEQGEPLWTLFDE [E22F]
Second: YQAGKPDALTKLEQGEPLWTLGDE [E22G]
The protein stability index of the first is lower: 2.05 for the first, 3.88 for the second.

First: YQAGKPDALTKLEQGEPLWTLHDE [E22H]
Second: YQAGKPDALTKLEQGEPLWTLIDE [E22I]
The protein stability index of the first is lower: 3.3 for the first, 3.75 for the second.

First: YQAGKPDALTKLEQGEPLWTLKDE [E22K]
Second: YQAGKPDALTKLEQGEPLWTLLDE [E22L]
The protein stability index of the first is lower: 3.46 for the first, 3.6 for the second.

Compared with YQAGKPDALTKLEQGEPLWTLMDE [E22M], YQAGKPDALTKLEQGEPLWTLNDE [E22N] is higher in protein stability index: 2.92 for the first, 3.95 for the second.

Compared with YQAGKPDALTKLEQGEPLWTLPDE [E22P], YQAGKPDALTKLEQGEPLWTLQDE [E22Q] is lower in protein stability index: 4.39 for the first, 3.5 for the second.

Going from YQAGKPDALTKLEQGEPLWTLSDE [E22S] to YQAGKPDALTKLEQGEPLWTLTDE [E22T], the protein stability index rises from 2.75 to 4.28.

Compared with YQAGKPDALTKLEQGEPLWTLVDE [E22V], YQAGKPDALTKLEQGEPLWTLWDE [E22W] is lower in protein stability index: 2.88 for the first, 2.35 for the second.

First: YQAGKPDALTKLEQGEPLWTLYDE [E22Y]
Second: YQAGKPDALTKLEQGEPLWTLECE [D23C]
The protein stability index of the first is lower: 2.62 for the first, 2.98 for the second.

Compared with YQAGKPDALTKLEQGEPLWTLEEE [D23E], YQAGKPDALTKLEQGEPLWTLEFE [D23F] is lower in protein stability index: 4.57 for the first, 3.38 for the second.

Going from YQAGKPDALTKLEQGEPLWTLEGE [D23G] to YQAGKPDALTKLEQGEPLWTLEHE [D23H], the protein stability index rises from 3.61 to 4.13.

Going from YQAGKPDALTKLEQGEPLWTLEIE [D23I] to YQAGKPDALTKLEQGEPLWTLEKE [D23K], the protein stability index rises from 1.84 to 3.51.

Compared with YQAGKPDALTKLEQGEPLWTLELE [D23L], YQAGKPDALTKLEQGEPLWTLEME [D23M] is higher in protein stability index: 2.97 for the first, 2.99 for the second.

Going from YQAGKPDALTKLEQGEPLWTLENE [D23N] to YQAGKPDALTKLEQGEPLWTLEPE [D23P], the protein stability index rises from 3.25 to 3.78.

Going from YQAGKPDALTKLEQGEPLWTLEQE [D23Q] to YQAGKPDALTKLEQGEPLWTLERE [D23R], the protein stability index rises from 3.86 to 4.16.

Going from YQAGKPDALTKLEQGEPLWTLESE [D23S] to YQAGKPDALTKLEQGEPLWTLETE [D23T], the protein stability index falls from 4.11 to 3.32.

Compared with YQAGKPDALTKLEQGEPLWTLEVE [D23V], YQAGKPDALTKLEQGEPLWTLEWE [D23W] is lower in protein stability index: 3.81 for the first, 2.13 for the second.

Going from YQAGKPDALTKLEQGEPLWTLEYE [D23Y] to YQAGKPDALTKLEQGEPLWTLEDA [E24A], the protein stability index rises from 2.14 to 3.74.

Compared with YQAGKPDALTKLEQGEPLWTLEDC [E24C], YQAGKPDALTKLEQGEPLWTLEDD [E24D] is higher in protein stability index: 3.49 for the first, 4.71 for the second.

Compared with YQAGKPDALTKLEQGEPLWTLEDF [E24F], YQAGKPDALTKLEQGEPLWTLEDG [E24G] is higher in protein stability index: 3.05 for the first, 3.87 for the second.

Going from YQAGKPDALTKLEQGEPLWTLEDH [E24H] to YQAGKPDALTKLEQGEPLWTLEDI [E24I], the protein stability index falls from 4.04 to 3.42.

First: YQAGKPDALTKLEQGEPLWTLEDK [E24K]
Second: YQAGKPDALTKLEQGEPLWTLEDL [E24L]
The protein stability index of the first is higher: 4.41 for the first, 3.53 for the second.

Compared with YQAGKPDALTKLEQGEPLWTLEDM [E24M], YQAGKPDALTKLEQGEPLWTLEDN [E24N] is higher in protein stability index: 3.88 for the first, 4.27 for the second.

Compared with YQAGKPDALTKLEQGEPLWTLEDP [E24P], YQAGKPDALTKLEQGEPLWTLEDQ [E24Q] is lower in protein stability index: 4.32 for the first, 4.02 for the second.

First: YQAGKPDALTKLEQGEPLWTLEDR [E24R]
Second: YQAGKPDALTKLEQGEPLWTLEDS [E24S]
The protein stability index of the first is higher: 4.48 for the first, 4.27 for the second.

First: YQAGKPDALTKLEQGEPLWTLEDT [E24T]
Second: YQAGKPDALTKLEQGEPLWTLEDV [E24V]
The protein stability index of the first is higher: 4.42 for the first, 3.42 for the second.

Going from YQAGKPDALTKLEQGEPLWTLEDW [E24W] to YQAGKPDALTKLEQGEPLWTLEDY [E24Y], the protein stability index rises from 2.38 to 3.29.

Variants of: B2
Experiment: as above
Conditions: c terminus: a fixed tail appended

Compared with AEDEVKRLGWQQQAELQELEERLQ [F1A], CEDEVKRLGWQQQAELQELEERLQ [F1C] is lower in protein stability index: 4.11 for the first, 3.11 for the second.

Compared with DEDEVKRLGWQQQAELQELEERLQ [F1D], EEDEVKRLGWQQQAELQELEERLQ [F1E] is lower in protein stability index: 4.72 for the first, 4.66 for the second.
